Changes are numbered by the printed parent chain. Numbers in names are those of the source.
Molecular target: T1, PUF4 RNA-binding domain (Saccharomyces cerevisiae, UniProt P25339 537-888)
T1 sequence: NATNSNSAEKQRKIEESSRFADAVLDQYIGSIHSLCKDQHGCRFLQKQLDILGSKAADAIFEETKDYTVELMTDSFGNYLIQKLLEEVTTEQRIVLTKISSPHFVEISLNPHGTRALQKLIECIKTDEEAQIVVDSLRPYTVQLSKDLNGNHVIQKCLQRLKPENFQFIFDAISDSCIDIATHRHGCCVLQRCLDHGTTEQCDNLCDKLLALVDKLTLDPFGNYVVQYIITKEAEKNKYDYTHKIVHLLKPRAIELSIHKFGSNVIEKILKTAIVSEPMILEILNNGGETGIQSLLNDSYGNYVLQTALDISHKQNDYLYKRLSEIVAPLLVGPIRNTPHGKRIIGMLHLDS
Assay: Mg; RNA-MaP; 20 mM Na-HEPES pH 7.4, 30 mM KOAc, 0.75 mM MgCl2, 0.1% Tween-20, 5% glycerol, 0.1 mg/mL BSA, 2 mM DTT; 25 C; 0.0125-409.6 nM protein
Details: tags: N-His6-TEV cleaved; C-SNAP kept, Cy3B-labelled; label: tethered on chip by stalled RNA polymerase

UCUCUUUGUAUGUUGUCUCUU (ssRNA) [Ib_S1_P4E.1_K4.1_C4.1_H4.1_A4.1_[A6G]_F4.1_[A9G]_T4.1]
Kd: 218 nM

UCUCUUUGUACAUUAUCUCUU (ssRNA) [Ic_S1_P4E.1_K4.1_C4.1_H4.1_A4.1_[T5C]_F4.1_T4.1]
Kd: 0.601 nM

UCUCUUUGUAUCUUGUCUCUU (ssRNA) [Ib_S1_P4E.1_K4.1_C4.1_H4.1_A4.1_[A6C]_F4.1_[A9G]_T4.1]
Kd: 25.9 nM

UCUCUUUGUAUGUUCUCUCUU (ssRNA) [Ic_S1_P4E.1_K4.1_C4.1_H4.1_A4.1_[A6G]_F4.1_[A9C]_T4.1]
Kd: 54.6 nM

UCUCUUUGUAUUUUGUCUCUU (ssRNA) [Ic_S1_P4E.1_K4.1_C4.1_H4.1_A4.1_[A6T]_F4.1_[A9G]_T4.1]
Kd: 15.2 nM

UCUCUUUGUAUCUUCUCUCUU (ssRNA) [Ib_S1_P4E.1_K4.1_C4.1_H4.1_A4.1_[A6C]_F4.1_[A9C]_T4.1]
Kd: 92.5 nM

B1: Ic_S4_P5E.1_K5.1_C5.1_H5.1_A5.1_[T5A]_[A7T]_F5.1_[T8A]_[T9G]_[A10C]_T5.1 (ssRNA)
RNA: UUUGACAACUGAUCGUUCUUUCUUGUAAUUAGCUUCUUUCUCGAUCAGUUGUCUUU
Kd: 338 nM

B2: Ic_S4_P5E.1_K5.1_C5.1_H5.1_A5.1_[A7T]_F5.1_[T8G]_[T9C]_[A10T]_T5.1 (ssRNA)
RNA: B1 RNA with A28U, A31G, G32C, C33U
Kd: 80.4 nM

B3: Ic_S4_P5E.1_K5.1_C5.1_H5.1_A5.1_[T5G]_[A7T]_F5.1_[T8A]_[A10T]_T5.1 (ssRNA)
RNA: B1 RNA with A28G, G32U, C33U
Kd: 85.3 nM

B4: Ic_S4_P5E.1_K5.1_C5.1_H5.1_A5.1_[T5A]_[T6C]_[A7T]_F5.1_[T8C]_[T9A]_[A10T]_T5.1 (ssRNA)
RNA: B1 RNA with U29C, A31C, G32A, C33U
Kd: 325 nM

B5: Ic_S4_P5E.1_K5.1_C5.1_H5.1_A5.1_[A7C]_F5.1_[T8C]_[T9C]_T5.1 (ssRNA)
RNA: B1 RNA with A28U, U30C, A31C, G32C, C33A
Kd: 141 nM

B6: Ic_S4_P5E.1_K5.1_C5.1_H5.1_A5.1_[T5A]_[T6C]_[A7T]_F5.1_[T8C]_[T9C]_[A10G]_T5.1 (ssRNA)
RNA: B1 RNA with U29C, A31C, G32C, C33G
Kd: > 2300 nM

B7: Ic_S4_P5E.1_K5.1_C5.1_H5.1_A5.1_[A7T]_F5.1_[T8G]_[T9C]_[A10G]_T5.1 (ssRNA)
RNA: B1 RNA with A28U, A31G, G32C, C33G
Kd: 196 nM

B8: Ic_S4_P5E.1_K5.1_C5.1_H5.1_A5.1_[A7G]_F5.1_[T9C]_[A10T]_T5.1 (ssRNA)
RNA: B1 RNA with A28U, U30G, A31U, G32C, C33U
Kd: 134 nM

B9: Ic_S4_P5E.1_K5.1_C5.1_H5.1_A5.1_[A7T]_F5.1_[T8C]_[T9A]_T5.1 (ssRNA)
RNA: B1 RNA with A28U, A31C, G32A, C33A
Kd: 452 nM

B10: Ic_S4_P5E.1_K5.1_C5.1_H5.1_A5.1_[T5A]_[T6C]_[A7C]_F5.1_[T8C]_[T9A]_[A10T]_T5.1 (ssRNA)
RNA: B1 RNA with U29C, U30C, A31C, G32A, C33U
Kd: 531 nM

B11: Ic_S4_P5E.1_K5.1_C5.1_H5.1_A5.1_[T5C]_[T6C]_F5.1_[T8G]_[T9C]_[A10T]_T5.1 (ssRNA)
RNA: B1 RNA with A28C, U29C, U30A, A31G, G32C, C33U
Kd: 650 nM

B12: Ic_S4_P5E.1_K5.1_C5.1_H5.1_A5.1_[T5A]_[T6A]_[A7T]_F5.1_[T8A]_[T9A]_[A10C]_T5.1 (ssRNA)
RNA: B1 RNA with U29A, G32A
Kd: 26.6 nM

B13: Ic_S4_P5E.1_K5.1_C5.1_H5.1_A5.1_[T5A]_[A7T]_F5.1_[T9C]_[A10T]_T5.1 (ssRNA)
RNA: B1 RNA with A31U, G32C, C33U
Kd: 32.8 nM

B14: Ic_S4_P5E.1_K5.1_C5.1_H5.1_A5.1_[T5A]_[T6C]_[A7G]_F5.1_[T9A]_[A10G]_T5.1 (ssRNA)
RNA: B1 RNA with U29C, U30G, A31U, G32A, C33G
Kd: 114 nM

B15: Ic_S4_P5E.1_K5.1_C5.1_H5.1_A5.1_[T5C]_[T6A]_[A7C]_F5.1_[T8C]_[A10G]_T5.1 (ssRNA)
RNA: B1 RNA with A28C, U29A, U30C, A31C, G32U, C33G
Kd: 81 nM

B16: Ic_S4_P5E.1_K5.1_C5.1_H5.1_A5.1_[T5C]_[T6G]_[A7T]_F5.1_[T8C]_[T9A]_[A10T]_T5.1 (ssRNA)
RNA: B1 RNA with A28C, U29G, A31C, G32A, C33U
Kd: 98.8 nM

B17: Ic_S4_P5E.1_K5.1_C5.1_H5.1_A5.1_[T5C]_[A7T]_F5.1_[T8C]_T5.1 (ssRNA)
RNA: B1 RNA with A28C, A31C, G32U, C33A
Kd: 2.44 nM

B18: Ic_S4_P5E.1_K5.1_C5.1_H5.1_A5.1_[T5G]_[A7C]_F5.1_[T8G]_T5.1 (ssRNA)
RNA: B1 RNA with A28G, U30C, A31G, G32U, C33A
Kd: 26.3 nM

B19: Ic_S4_P5E.1_K5.1_C5.1_H5.1_A5.1_[T6G]_[A7C]_F5.1_[T8A]_T5.1 (ssRNA)
RNA: B1 RNA with A28U, U29G, U30C, G32U, C33A
Kd: 14.1 nM

B20: Ic_S4_P5E.1_K5.1_C5.1_H5.1_A5.1_[T5A]_[A7C]_F5.1_[T8C]_[T9G]_[A10G]_T5.1 (ssRNA)
RNA: B1 RNA with U30C, A31C, C33G
Kd: > 2300 nM

B21: Ic_S4_P5E.1_K5.1_C5.1_H5.1_A5.1_[T5C]_[A7T]_F5.1_[T8C]_[T9A]_[A10T]_T5.1 (ssRNA)
RNA: B1 RNA with A28C, A31C, G32A, C33U
Kd: 103 nM

B22: Ic_S4_P5E.1_K5.1_C5.1_H5.1_A5.1_[A7T]_F5.1_[T8G]_[T9C]_[A10C]_T5.1 (ssRNA)
RNA: B1 RNA with A28U, A31G, G32C
Kd: 101 nM

B23: Ic_S4_P5E.1_K5.1_C5.1_H5.1_A5.1_[T5A]_[T6C]_[A7T]_F5.1_[T8G]_[T9C]_[A10T]_T5.1 (ssRNA)
RNA: B1 RNA with U29C, A31G, G32C, C33U
Kd: 304 nM

Reference: paper PMC9352680, “A comprehensive thermodynamic model for RNA binding by the Saccharomyces cerevisiae Pumilio protein PUF4”
